Data set [1] concerns the target full-length human α7 nicotinic acetylcholine receptor (human) (UniProt P36544). Put plainly: SEC; S200 10/300 column, 20 mM HEPES pH 7.4, 300 mM NaCl, 0.2% DPC or 0.1% LDAO; pentamer fraction isolated. (In general: Size exclusion chromatography separates by hydrodynamic size, large species first.)
Data set [2] concerns the molecule itself. Put plainly: NMR structure (NMR and ESR restraints with Rosetta comparative modelling); α7nAChR TMD + ICD in LDAO micelles, pH 4.7, 25 mM NaCl, 318 K, with ivermectin; fivefold symmetry applied in the calculations.

What is called stoichiometry N is a count of units in the complex or per binding partner. On to “full-length human α7 nicotinic acetylcholine receptor (from UniProt P36544 23-502)”, for which the stoichiometry N in data set [1] came out at 5.

B1: human α7 nicotinic acetylcholine receptor construct containing the transmembrane and intracellular domains (α7nAChR TMD + ICD) (domain or fragment)
chain: LYYGLNLLIPCVLISALALLVFLLPADSGEKISLGITVLLSLTVFMLLVAEIMPATSDSVPLIAQYFASTMIIVGLSVVVTVIVLQYHHHDPDGGKMPKWTRVILLNWCAWFLRMKRPGEDKVRPACQHKQRRCSLASVEMSAVAPPPASNGNLLYIGFRGLDGVHCVPTPDSGVVCGRMACSPTHDEHLLHGGQPPEGDPDLAKILEEVRYIANRFRCQDESEAVCSEWKFAACVVDRLCLMAFSVFTIICTIGILMSAPNFVE
notes: α7 nicotinic acetylcholine receptor, human; construct with the transmembrane domain (TMD) and intracellular domain (ICD), without the extracellular domain; also called α7 TMD + ICD; α7 TMD-ICD; source: E. coli Rosetta 2(DE3) pLysS, purified (NiNTA, SEC pentamer fraction), in LDAO micelles
As to B1, in data set [2], the “stoichiometry N” value is 5.
